{"source": "patent US20050153887A1", "molecules": {"B1": {"name": "Wnt-1 (cotransfected into 293T cells for the reporter assay) (ligand, UniProt P04628 28-370, looked up, species assumed)", "Proto-oncogene Wnt-1": "ANSSGRWWGIVNVASSTNLLTDSKSLQLVLEPSLQLLSRKQRRLIRQNPGILHSVSGGLQSAVRECKWQFRNRRWNCPTAPGPHLFGKIVNRGCRETAFIFAITSAGVTHSVARSCSEGSIESCTCDYRRRGPGGPDWHWGGCSDNIDFGRLFGREFVDSGEKGRDLRFLMNLHNNEAGRTTVFSEMRQECKCHGMSGSCTVRTCWMRLPTLRAVGDVLRDRFDGASRVLYGNRGSNRASRAELLRLEPEDPAHKPPSPHDLVYFEKSPNFCTYSGRLGTAGTAGRACNSSSPALDGCELLCCGRGHRTRTQRVTERCNCTFHWCCHVSCRNCTHTRVLHECL"}}, "experiment_in_all_cases": "cell-based or functional assay", "key": {"[1]": {"molecular_target": "Ryk (DNA construct expressing Ryk, transfected into 293T cells for the reporter assays)"}, "[2]": {"molecular_target": "endogenous Ryk of mouse (mouse) (UniProt Q01887)", "sequence (Q01887 35-594 limits assumed)": "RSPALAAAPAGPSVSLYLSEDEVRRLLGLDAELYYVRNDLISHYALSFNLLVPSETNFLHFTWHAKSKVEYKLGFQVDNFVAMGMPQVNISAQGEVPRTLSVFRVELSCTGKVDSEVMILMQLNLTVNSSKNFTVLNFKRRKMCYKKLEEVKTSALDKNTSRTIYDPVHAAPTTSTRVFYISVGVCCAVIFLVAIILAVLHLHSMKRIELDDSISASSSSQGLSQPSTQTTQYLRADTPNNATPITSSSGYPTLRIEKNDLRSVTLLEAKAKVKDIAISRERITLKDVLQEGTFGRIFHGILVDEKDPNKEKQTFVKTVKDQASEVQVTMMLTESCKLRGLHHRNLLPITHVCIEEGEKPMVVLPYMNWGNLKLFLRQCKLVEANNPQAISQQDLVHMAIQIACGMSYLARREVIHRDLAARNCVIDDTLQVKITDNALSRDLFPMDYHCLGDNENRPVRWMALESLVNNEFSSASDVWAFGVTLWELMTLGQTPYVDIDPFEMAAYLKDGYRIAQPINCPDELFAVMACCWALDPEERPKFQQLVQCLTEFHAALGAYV"}, "[3]": {"molecular_target": "Dishevelled (overexpressed in 293T cells for the reporter assay)"}, "[4]": {"molecular_target": "endogenous Ryk in 293T cells (human) (UniProt P34925)", "sequence (P34925 other isoform, or with tags, fused parts or gaps limits assumed)": "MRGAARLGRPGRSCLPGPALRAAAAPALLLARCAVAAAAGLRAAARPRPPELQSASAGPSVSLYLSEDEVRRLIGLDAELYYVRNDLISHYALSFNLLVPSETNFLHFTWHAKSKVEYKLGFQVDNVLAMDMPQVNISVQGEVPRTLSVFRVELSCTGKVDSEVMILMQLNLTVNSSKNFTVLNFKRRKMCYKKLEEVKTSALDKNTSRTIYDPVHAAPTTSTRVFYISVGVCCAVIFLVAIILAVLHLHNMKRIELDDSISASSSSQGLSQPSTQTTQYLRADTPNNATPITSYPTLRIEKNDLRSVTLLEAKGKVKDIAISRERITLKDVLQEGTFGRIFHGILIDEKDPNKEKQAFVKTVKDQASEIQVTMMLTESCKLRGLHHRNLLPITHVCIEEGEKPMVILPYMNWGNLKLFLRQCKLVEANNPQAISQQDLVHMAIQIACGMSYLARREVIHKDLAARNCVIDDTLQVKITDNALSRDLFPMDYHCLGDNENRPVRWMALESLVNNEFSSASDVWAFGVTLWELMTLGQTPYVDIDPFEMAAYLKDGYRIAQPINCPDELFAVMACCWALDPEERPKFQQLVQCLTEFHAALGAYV"}}}
{"molecule": "Wnt3a (Wnt3a conditioned medium) (ligand)", "values": [{"measurement": "activation of the TCF-luciferase reporter in 293T cells transfected with Ryk and treated with Wnt3a conditioned medium", "setting": "[1]", "value": 5, "unit": "fold"}, {"measurement": "average length of neurites of DRG explants in Wnt3a conditioned medium, Ryk siRNA mice against wild type", "setting": "[2]", "value": 2, "unit": "fold"}]}
{"molecule": "Ryk (DNA construct expressing Ryk, transfected into 293T cells for the reporter assays) (receptor)", "values": [{"measurement": "activation of the TCF-luciferase reporter on co-expression of Ryk with Dishevelled (Dishevelled alone about 15-fold)", "setting": "[3]", "value": 25, "unit": "fold"}]}
{"molecule": "B1", "values": [{"measurement": "activation of the TCF-luciferase reporter in wild type 293T cells after Wnt stimulation", "setting": "[4]", "value": 25, "unit": "fold"}, {"measurement": "inhibition of TCF-driven transcription induced by Wnt-1 in Ryk siRNA-containing 293T cells", "setting": "[4]", "value": 12, "unit": "fold"}]}
